From patent publication US20150064134A1

Legend:
Assay in all cases: cell-based or functional assay
[1] = target: MKK6(h) (human) (UniProt P52564)
[2] = target: ALK(h) (human) (UniProt Q9UM73)
[3] = target: T1, NEK11(h) (human) (UniProt Q8NG66)
T1 sequence (looked up): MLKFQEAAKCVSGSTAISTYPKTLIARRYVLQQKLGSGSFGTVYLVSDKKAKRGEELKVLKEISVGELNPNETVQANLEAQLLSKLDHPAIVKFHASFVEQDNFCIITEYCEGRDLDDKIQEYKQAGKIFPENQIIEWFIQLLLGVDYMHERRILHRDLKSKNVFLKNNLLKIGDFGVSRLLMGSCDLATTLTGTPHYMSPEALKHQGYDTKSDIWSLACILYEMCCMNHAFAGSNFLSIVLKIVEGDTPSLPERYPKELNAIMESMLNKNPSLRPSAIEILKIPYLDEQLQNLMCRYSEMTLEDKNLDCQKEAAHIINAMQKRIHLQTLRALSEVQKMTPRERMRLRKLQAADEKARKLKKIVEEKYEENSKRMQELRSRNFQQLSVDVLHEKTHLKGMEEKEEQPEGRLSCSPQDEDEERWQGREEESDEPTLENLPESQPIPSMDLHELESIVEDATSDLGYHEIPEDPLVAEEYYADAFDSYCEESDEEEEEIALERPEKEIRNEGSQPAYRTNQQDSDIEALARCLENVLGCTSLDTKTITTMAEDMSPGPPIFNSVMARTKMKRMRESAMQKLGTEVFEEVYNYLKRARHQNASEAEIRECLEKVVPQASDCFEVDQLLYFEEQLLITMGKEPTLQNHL

[4] = target: T2, TBK1(h) (human) (UniProt Q9UHD2)
T2 sequence (looked up): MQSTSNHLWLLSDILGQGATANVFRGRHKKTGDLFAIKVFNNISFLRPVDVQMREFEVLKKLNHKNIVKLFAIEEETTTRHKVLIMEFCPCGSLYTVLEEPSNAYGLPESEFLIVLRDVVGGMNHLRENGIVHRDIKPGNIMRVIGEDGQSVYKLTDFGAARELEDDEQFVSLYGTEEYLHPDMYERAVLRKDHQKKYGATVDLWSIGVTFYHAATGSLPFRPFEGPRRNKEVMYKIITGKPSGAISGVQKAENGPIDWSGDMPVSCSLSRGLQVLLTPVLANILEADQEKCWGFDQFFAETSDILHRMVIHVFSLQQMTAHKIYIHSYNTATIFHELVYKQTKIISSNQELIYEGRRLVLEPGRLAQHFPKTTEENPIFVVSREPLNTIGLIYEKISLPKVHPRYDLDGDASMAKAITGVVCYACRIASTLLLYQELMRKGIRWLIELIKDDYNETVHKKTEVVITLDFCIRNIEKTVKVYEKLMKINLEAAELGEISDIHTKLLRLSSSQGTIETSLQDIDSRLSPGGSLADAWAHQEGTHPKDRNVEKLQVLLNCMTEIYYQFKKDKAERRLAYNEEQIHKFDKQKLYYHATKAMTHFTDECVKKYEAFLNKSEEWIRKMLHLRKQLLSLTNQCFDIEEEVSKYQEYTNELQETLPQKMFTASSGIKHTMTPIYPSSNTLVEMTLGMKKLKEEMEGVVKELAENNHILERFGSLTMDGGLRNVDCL

[5] = target: T3, Fms(h) (human) (UniProt P07333)
T3 sequence (looked up): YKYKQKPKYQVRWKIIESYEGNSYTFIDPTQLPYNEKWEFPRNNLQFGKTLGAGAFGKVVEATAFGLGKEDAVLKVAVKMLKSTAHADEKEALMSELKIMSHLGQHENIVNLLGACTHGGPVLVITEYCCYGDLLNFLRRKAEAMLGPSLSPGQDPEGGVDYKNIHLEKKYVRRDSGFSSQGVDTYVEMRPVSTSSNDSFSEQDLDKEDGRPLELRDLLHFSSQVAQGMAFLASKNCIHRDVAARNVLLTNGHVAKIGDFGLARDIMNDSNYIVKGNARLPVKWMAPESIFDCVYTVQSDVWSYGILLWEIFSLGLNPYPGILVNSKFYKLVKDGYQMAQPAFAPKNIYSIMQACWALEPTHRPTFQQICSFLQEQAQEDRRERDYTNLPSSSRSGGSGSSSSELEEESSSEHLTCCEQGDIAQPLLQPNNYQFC

[6] = target: MAPKAP-K2(h) (human) (UniProt P49137)
[7] = target: NEK6(h) (human) (UniProt Q9HC98)
[8] = target: Tie2(Y897S)(h) (human) (UniProt Q02763)
Tie2(Y897S)(h) (human), sequence (Q02763 771-1124 Y897S limits assumed): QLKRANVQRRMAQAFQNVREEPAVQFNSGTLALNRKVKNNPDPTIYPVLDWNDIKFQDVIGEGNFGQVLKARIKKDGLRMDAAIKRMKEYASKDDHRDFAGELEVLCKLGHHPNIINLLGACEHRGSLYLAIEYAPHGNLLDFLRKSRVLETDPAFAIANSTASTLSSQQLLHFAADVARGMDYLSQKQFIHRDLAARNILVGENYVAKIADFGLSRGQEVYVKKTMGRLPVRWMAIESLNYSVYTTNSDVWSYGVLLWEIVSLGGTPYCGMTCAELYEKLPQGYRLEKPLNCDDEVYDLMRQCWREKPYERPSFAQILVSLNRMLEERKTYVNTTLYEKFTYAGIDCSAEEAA

[9] = target: GSK3β(h) (human) (UniProt P49841)
[10] = target: PDGFRα(V561D)(h) (human) (UniProt P16234)
PDGFRα(V561D)(h) (human), sequence (P16234 550-1089 V561D limits assumed): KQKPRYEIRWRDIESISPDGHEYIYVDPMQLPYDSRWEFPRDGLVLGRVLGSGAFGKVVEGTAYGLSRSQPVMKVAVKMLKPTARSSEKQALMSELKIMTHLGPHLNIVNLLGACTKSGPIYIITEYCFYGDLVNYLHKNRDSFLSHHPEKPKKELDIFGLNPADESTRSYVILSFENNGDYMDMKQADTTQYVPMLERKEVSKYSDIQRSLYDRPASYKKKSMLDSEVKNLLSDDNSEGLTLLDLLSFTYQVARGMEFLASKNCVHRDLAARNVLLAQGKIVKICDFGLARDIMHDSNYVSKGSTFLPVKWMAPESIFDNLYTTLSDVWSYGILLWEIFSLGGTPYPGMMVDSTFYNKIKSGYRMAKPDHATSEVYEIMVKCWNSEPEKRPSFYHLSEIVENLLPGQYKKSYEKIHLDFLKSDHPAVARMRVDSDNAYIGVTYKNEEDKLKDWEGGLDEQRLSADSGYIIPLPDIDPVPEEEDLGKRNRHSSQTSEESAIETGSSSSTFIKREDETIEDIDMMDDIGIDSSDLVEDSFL

[11] = target: Pim-3(h) (human) (UniProt Q86V86)
[12] = target: CDK3/cyclinE(h) (human) (UniProt Q00526)
[13] = target: CDK5/p35(h) (human) (UniProt Q00535)
[14] = target: T4, Ret(V804M)(h) (human) (UniProt P07949)
T4 sequence (looked up): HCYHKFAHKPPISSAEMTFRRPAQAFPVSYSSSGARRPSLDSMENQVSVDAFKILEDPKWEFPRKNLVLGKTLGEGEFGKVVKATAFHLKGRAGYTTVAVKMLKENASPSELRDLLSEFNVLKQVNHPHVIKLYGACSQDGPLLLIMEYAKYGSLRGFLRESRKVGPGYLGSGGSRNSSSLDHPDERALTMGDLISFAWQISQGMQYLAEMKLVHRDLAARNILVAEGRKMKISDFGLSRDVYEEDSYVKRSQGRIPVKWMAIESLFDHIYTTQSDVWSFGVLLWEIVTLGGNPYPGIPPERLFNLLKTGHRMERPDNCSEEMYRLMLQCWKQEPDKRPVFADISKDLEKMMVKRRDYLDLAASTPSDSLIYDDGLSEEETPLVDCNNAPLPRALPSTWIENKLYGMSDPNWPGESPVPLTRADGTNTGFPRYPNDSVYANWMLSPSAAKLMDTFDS

Row | Substance | % activity at 100 µM [1] | % activity at 100 µM [2] | % activity at 100 µM [3] | % activity at 100 µM [4] | % activity at 100 µM [5] | % activity at 100 µM [6] | % activity at 100 µM [7] | % activity at 100 µM [8] | % activity at 100 µM [9] | % activity at 100 µM [10] | % activity at 100 µM [11] | % activity at 100 µM [12] | % activity at 100 µM [13] | % activity at 100 µM [14]
1 | MMI-0400 (peptide) | 44% | 16% | 33% | 39% | 37% | 5% | 85% | 87% | 202% | 100% | 80% | 92% | 76% | 87%
2 | MMI-0300 (peptide) | 48% | 19% | 53% | 37% | 45% | 5% | 82% | 83% | 205% | 82% | 80% | 94% | 79% | 95%
3 | MMI-0500 (peptide) | 18% | 12% | 2% | 16% | 14% | 9% | 49% | 80% | 238% | 146% | 37% | 8% | 59% | 36%
